Measured values reported in patent US20080242590.

Target: amyloid β peptide 1-40 (human)

B1: Recombinant Human Neprilysin (R&D Systems) (protein)
chain: YDDGICKSSDCIKSAARLIQNMDATTEPCTDFFKYACGGWLKRNVIPETSSRYGNFDILRDELEVVLKDVLQEPKTEDIVAVQKAKALYRSCINESAIDSRGGEPLLKLLPDIYGWPVATENWEQKYGASWTAEKAIAQLNSKYGKKVLINLFVGTDDKNSVNHVIHIDQPRLGLPSRDYYECTGIYKEACTAYVDFMISVARLIRQEERLPIDENQLALEMNKVMELEKEIANATAKPEDRNDPMLLYNKMTLAQIQNNFSLEINGKPFSWLNFTNEIMSTVNISITNEEDVVVYAPEYLTKLKPILTKYSARDLQNLMSWRFIMDLVSSLSRTYKESRNAFRKALYGTTSETATWRRCANYVNGNMENAVGRLYVEAAFAGESKHVVEDLIAQIREVFIQTLDDLTWMDAETKKRAEEKALAIKERIGYPDDIVSNDNKLNNEYLELNYKEDEYFENIIQNLKFSQSKQLKKLREKVDKDEWISGAAVVNAFYSSGRNQIVFPAGILQPPFFSAQQSNSLNYGGIGMVIGHEITHGFDDNGRNFNKDGDLVDWWTQQSASNFKEQSQCMVYQYGNFSWDLAGGQHLNGINTLGENIADNGGLGQAYRAYQNYIKKNGEEKLLPGLDLNHKQLFFLNFAQVWCGTYRPEYAVNSIKTDVHSPGNFRIIGTLQNSAEFSEAFHCRKNSYMNPEKKCRVW
In the case of B1, the “Amyloid β 1-40 peptide degradation (remaining peptide by Gyrolab immunoassay), enzyme 2.4 µg/ml, 300 nM peptide, 2.5 h at 37 °C in buffer” value is reported as “degraded 64% of Amyloid β 1-40 peptide (300 nM)” and the “degradation of Aβ40 in human plasma compared to vehicle (ELISA), 5 µg/ml, 4 h at 37 °C” value is reported as “degraded Aβ40 with 33% and 70%, respectively”.
